From the nanobody polyreactivity screen of Harvey et al. (2022)

Test: yeast display, Sf9 membrane polyspecificity reagent, FACS + sequencing; frameworks hold sequencing errors
How it was run: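 Synthetic nanobody libraries on Saccharomyces cerevisiae BJ5465 were galactose-induced for 36–48 hours, stained 1 hour at 4 °C with 10% biotinylated, detergent-solubilized Sf9 membrane reagent and enriched on streptavidin microbeads. FACS then separated cells into low and high (top ~1%) gates by anti-HA (expression) and streptavidin (reagent binding) fluorescence. Genes were colony-PCR amplified, MiSeq 2 × 250 sequenced and CDR-length filtered. A clone's polyreactivity label is that of its gate of origin.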

Sequence | polyreactivity (PSR sort gate)
QLQLVESGGGLVQAGGSLRLSCAASGFIFPDYAMGWYRQAPGTERELVAAMRIRDGSTYYADSVKGRFTISRDNAKNTVYLQMNSLKPEAPAVYYCAVRSSYGYSDTNYIMYYWGQGTQVTVSS | low polyreactivity
QLQLVESGGGLVQAGGSLRLSCAASGFTFRWNAMGWYRQAPGKERELLAAITNDDSTYYADSVKGRFTISRDNAKNSVYLQLNSLKPEDTAVYYCNARYGRYLDLDTGVALAGRGYWGQGTQVTVSS | low polyreactivity
QLQLVESGGGLVQAGGSLRLSCAASGFTFSAYAMGSYRQAPGKERELVAAISWSGGSTYYADSVKGRFTISRDNAKNTVYLQRNSLKPEDTAVYYCAADFHSYYRFDYWGQGTQVTVSS | high polyreactivity
QLQLVESGGGLVQAGGSLRLSCAASGITLYRYVMGWYRQAPGKERELVADISGRGTSTYYADSVKGRFTISRDNAKNTVYLQMNSLKPEDTSVYYCNAEYTKTGALVIPYTYYYAADYWGQGTQVTVSS | low polyreactivity
QLQLVESGGGLVQAGGSLRLSCAASGLIFPFYAMGWYRQAPGKERELVAAITSSGNTYYADSVKGLFTISRDNAKNTVYLQMNSLKPEDTAVYYCAADGSRIVKFDYWGQGTQVTVSS | high polyreactivity
QLQLVESGGGLVQAGGSLRLSCAASGRIFDGNTMGWYRQAPGKERELVAAITYSGGRTSYADSVKGRFTISRDNAKNTVYLQMISLKPEDTAVYYCNARVVTGSWYEGYYWGQGTQVTVSS | low polyreactivity
QLQLVESGGGLVQAGGSLRLSCAASGRIFRKNAMGWYRQAPGKERELVAAITSSGNTYYADSVKGRFTISRDNAKNTVYLQMNSLKTEDTAVYYCAARLKWLNRYGYDYWGQGTQVTVSS | low polyreactivity
QLQLVESGGGLVQAGGSLRLSCAASGRIFYPYAMGWYRQAPGKERELVPAIDYSDGNSYYADSVKGRFTISRDNAKNTVYLQMNSLKPEDTAVYYWAVEYTGAWIGVWYDYWGQGTQVTVSS | high polyreactivity
QLQLVESGGGLVQAGGSLRLSCAASGRIFYVNAMGWYRQAPGKERELVASITDGSSTYYADSVKGRFTISRDNAKNTVYLQMNILKPEDTAVYYCAVRAAYWGAHYYYWGQGTQVTVSS | high polyreactivity
QLQLVESGGGLVQAGGSLRLSCAASGRTFDSYAMGWYRQPPGKERELVAAIYADSVKGRFTISRDIAKNTVYLQMYSLTPEDSAVYYCAAETYSGQTYLGEYDYWGQGTQVTVSS | low polyreactivity
QLQLVESGGGLVQAGGSLRLSCAASGRTFQLYAMGWYRQAPGKERELVAAISYSGGSTYYADSVKGRFTISRDNAKNSVYLQTNSLKPEDTAVYYCAARPRSTRPSYYYRSAGYYWGQGTQVTLSS | high polyreactivity
QLQLVESGGGLVQAGGSLRLSCAASGSIFVVNAMGWYRQAPGKERELVAAISRGGITNYADSVKGRFTISRDNAKNTVYLQMNILKPEDTAVYYCNARGSRWVKPERDYWGQGTQVTVSS | low polyreactivity
QLQLVESGGGLVQAGGSLRLSCAASGSTFAANAMGRYRQAPGKERELVAASTSSGGSTYYADSVKGRFTISRDNAQNTVYLQMNSLKPEDTAVYYCAADRWYITLSIDATISYDYWGQGTQVTVSS | low polyreactivity
QLQLVESGGGLVQAGGSLRLSCAASGSTFTDYAMGWYRQAPGKERELVAAISWSGGSTYYADSVKGRFTISRDNAKNTVYLQMNSLKPEDTAVYYCAFRYHGYDYWGQGTQVTVSS | high polyreactivity
QLQLVESGGGLVQAGGSLRLSCAASGSTIDHNAMGWYRQAPGKERELVATISSSGGSTYYADSVKGRFTISRDNAKNTVYFQMNSLKPEDTAGYDCNRYFRRGGRYPYNYWGQGTQVTVSS | high polyreactivity
QLQLVESGGGLVQAGGSLRLSCAASGSTYHINAMGWYRQAPGKERELVADINWSGGSTYYADSVKGRFTISRDNAKNTVYLQMNSLKPEDTAVYYCAADVGVFTYSPYDAGEHDYWGQGTQVTVSS | low polyreactivity
QLQLVESGGGLVQAGGSLRLSCAASGYTFTSYTKGWYRQAPGKEWELVAAITWTGGRTYYADSVKGRFTISRDNAKNTVYLQMNSLKPEDTAVYFCAGSWRKVDYWGQGTQVTVSS | high polyreactivity
QLQLVESGGGLVQAGGSLRLSCAPSGLTFGRYAMGGYRHAPGKERELVAAITARVGRTYYADSVKGRFTISRDNEKNTVYLQMNSLKPEDTAVYYCAAGPSYFWYSHEKYDYWGQGTQVTVSS | high polyreactivity
QLQLVESGGGLVQAGGSLRLSCASTGSIFRPSPMGWYRPAPGKDRELVPDITWSGGSTYYADSVKGRFTISRDNAKNTVYLQMNSLKPEDTAVYYCAARFSYWARNSEYWGQGTQVTVSS | low polyreactivity
QLQLVESGGGLVQAGGSLRRSCAPSGRILWVNAMGWSRQAPGKERELVAAISLSGGRTYYADSVKGRFTISRDNAKNTVYLQMNSLKPEDTAVYYCAARTVNYYYTTGDYWGQGTQVTVSS | low polyreactivity
QLQLVESGGGLVQAVGSLRLSCAATGSIFYPYAMGWNRQAPGKERELVASISWSGGITYYADSVKGRFTISRDNAKNTVYLQMNSLKPEDTAVYYCAADFSWYLYDYDYWGQGTQVTVSS | low polyreactivity
QLQLVESGGRLVQAGGSLRLSCAASGRTFGRYAMGWYIQAPGKEREFVSSISRSTGRTSYADSVKGRFTISRANAKNTVYLQMNSLKPEDTAVYYCAVRWYYYRDDTIYVLGRYDYWGQGTQVTVSS | high polyreactivity

Sequence | polyreactivity (PSR sort gate)
QLQLVESRGGLVQAGGSLRLSCASYGSIFIWYAMGWYRQATGKERELVAAITSSGSTNYADSVKGRFTISRDNAKNPVYLQMNSLKPEDTAVYYCAAEYTYYTYNLNYWGQGTQVTVSS | low polyreactivity
QLQLVESVGGLVQAGGSLRLSCAGSGRIFGRSAMGWYTHAPGKHRALVAAISRSGGSTYYADSVKGRVTISRDKAKNTVYLQMYSLKPEDTAVYNCNRRYITYNDDYWGQGTQVTVSS | high polyreactivity
QLQLVQSGGGLVQAGGILRLSCAPSGSIFTPNTMGWYSQAPGKERELVAAITIRGGSTYYADSVKGSFTISRDNANITVYLQMNSLKPEDTAVYYCATEYGLRYYLVDYWGQGTQVTVSS | low polyreactivity
QMQLQESGGGLVQAGGSLRLSCAPSGTIIRVRYMGWHRQAPGKDRELVAGINGGTTTYNSDSVIGRFTISRDNANNTVFLQMNSLKPDDTAVYKCAAGASRLTYYDYWGQGTQVTVSS | low polyreactivity
QMQLQESGGGLVQAGGSQRLSCAASDSISIGAGMGWYRQAPGKERELVAGISVGTSTNYADSVNGRFTISRVNAKNTVYLQMNSLKPEDTAVYYCAKGYRRVYGPFYYWGQGTQVTVSS | low polyreactivity
QQLQESGGGLVQAGGSLRLSCAASGSISGSVLMGWYRQAPGKEREFVASISLGGNTNYADSVKGRFTISRENAKNTVYLQMNSLKPEVAAVYYCAAYISLFETHPYWGQGTQVTVSS | high polyreactivity
QVDLVESGGGLVQAGGSLRLSCAASGRTFQFNGMGWYRQAPVKERELVAGITSGGSTYYADSVKGRFTISRDNAKTTVYLQMISLKPEDTAVYYCAKDDPYFRGSPYFGRYPYGYWGQGTEVTVSS | high polyreactivity
QVELVESGGGLDQAGGSLRLSCAASGFIFRWYAMGWYRQAPGKERELVAAITRGTRTNYADSVKGRFTISRDNAKNTVYLQMNSLKPEDTAVYYCAADFSRDAYRNYYYWGQGTQVTVSS | high polyreactivity
QVELVESGGGLVQAGGSLRISCDASGSTFRWYAMGWYRQGPGKERELVAAINRSGGSTYYADSVKGRFTISRDNAKNTVYLQMNSLKPEDTAVYYCEARWYSSSRWYKYNYWGQGTQVTVSS | high polyreactivity
QVELVESGGGLVQAGGSLRLSCAASGLTCVSYAMGWYRQAPGKERELVAAISRSGGSTYYADSVKGRFTISRDNAKNTVYLQMNSLKPVDTAVYYGNAYSYVDFCAVYRYDYWGQGTQLTVSS | high polyreactivity
QVELVESGGGLVQAGGSLRLSCPASGRTFYYYAMGWSRQEPGKERELVATITKSSGSTYYADSVKGRFTISRDNAKNTVYLQMNSLKPEDTAVYYCNADPWAKTPYYYWGQGTQVTVSS | high polyreactivity
QVELVESGGGLVQPGGRLRLSCAASGRIFRYNTMGWYRQAPGKEREFVAAITQRGVNTYYADSVKGRFTISRDNAKNTVYLQRNSLKPEDTAVYYCNAKRYSYWIYRAYDYWGQGTQVTVSS | low polyreactivity
QVELVVSGGGLVQAGGSLRLSCAASGRIFYRYAMGWYRQAPGKERELVAAISGRGGSTYYADSVKGRFTISRDNAKNTVYLQMNSLKPEDTAVYYCNALPVYRSLAYEVDYWGQGTQVTVSS | high polyreactivity
QVHHEETGGGLVQAGGSLRLSCSASGRTFVYYDMGWYRHATGKERQLVAAIDSSGSTYYADSVKGRFTISRDNAKNTVYLQMNSLKPEDSAVYYCGAGYWFFPYWYDYWGQGTQVTVSS | high polyreactivity
QVHHVDSGGGIVKAGGSLRLSCPASGFIFPRNVLGWSRQEPGKERELVAAISRSGGSTYYADSVKGRFTISRDNAKNTVYLPMNSLKPEDTAVYYGGKRTFYNGEFWGQGTQVTVSS | low polyreactivity
QVHHVESGAGLVQAGGSLRLSSAASGRTFGSNTKGCYSQAPGKERELVAAITISGGSTYYADSVKGRFTISRDNAKNTVYLKMNSLKPEDTAVYYCATRLWGHGGGRTTSYMYNWRQGTQVTVSS | high polyreactivity
QVHHVESGGGLVQAGGSLRISCAASGAIFFFNTMGWYRLAPGKERELVAVITSGGSTYYADSVKGRFTISRDNAKNTVYLQMNSLKPEDTAVYYCNAYTWGVGSSLDDVGYWGQGTQVTVSS | low polyreactivity
QVHHVETGGGLDQAGGTLRLSCAASGRTFCTNAMGWSRQAPGKEWELVAAISSSGGSTYYADSVKGRFTISRDNAKNTVYLQMNSLKPEDTAVYYCAKGWHRGVGFCYWGQGTQVTVSS | high polyreactivity
QVHIVESGGRLFQAGGSLRLSCAASGFTFAYYAMGWYRQAPGKEREMVAAISRGGTSTYYADSVKGRFTISRDNATNPVYLQMNSLKPEDTAVFYCNAVKVGYSLYDFWGQGTQVTVSS | high polyreactivity
QVHLEESGGGLVQAGGSLRLRCAASGFTFGHYTMGWYRQAPGKERELVAAITWRGGTYYADSVKGRFTISRDNAKNTVYLQMNSLKPEDTAVYYCNARFGQTVKGTYGRYYYWGQGTQVTVSS | high polyreactivity
QVHLEESGGGLVQAGGSLRLSCAASGLTFQWNAMGWYRQAPGKERELVAAISYSGGSTYYAYSVKGRFTISRDNAKYCVYLQMKSLKPEDTAVYYCAARTYSQWLQRYRLLGQGTQVTVSS | high polyreactivity
